This is an account of results in patent US6329500A, “Transforming growth factor-β binding site” (University of Virginia Patent Foundation, priority 1999, dated 2001).

The target of assay [1] is T1, TGF-β1 (Homo sapiens, UniProt P01137).
T1 construct: purchased R&D Systems (Minneapolis, Minn.)
The following applies: previously reported in references 31 and 33; mean ± S.E., n=4; read-out: IC50, 125I-TGF-β1 binding to immobilized α2M-MA; cited from earlier work.

Assay [2] addresses T1, TGF-β1. The experiment in a line: 125I-TGF-β1 binding to immobilized α2M-MA, solution-phase competition. The following applies: mean ± S.E., n=4; 1 h at 22° C. The protocol:
The wells were washed three times with PBS-T and blocked with PBS-T for 16 h at 4° C. […] In the presence of a fusion protein (FP) which binds TGF-β, the total concentration of TGF-β [βT ] was related to [βF ], at equilibrium, as follows: [βT ]=[βF ](1+[FP]/KI).

Assay [3] addresses T2, 125I-TGF-β1 binding to immobilized FP3 (Homo sapiens, UniProt P01023+P01137).
T2 construct: corresponding to amino acids 614-797 and 798-1082, respectively; made in house
The experiment in a line: Competition for 125I-TGF-β1 binding to PVDF-immobilized FP3. The following applies: unlabeled TGF-β1 0.2 μM. The method, then:
(§1) To block free sulfhydryls, some samples were treated with 5 mM IAM for 2 h at 25° C. Equivalent amounts of each protein ([…]) were subjected to SDS-PAGE on 10% slabs. IAM-treated GST-α2 M-peptide fusion proteins were subjected to SDS-PAGE as well. All samples were electro-transferred to PVDF membranes. The membranes were blocked with 5% milk and 0.1% Tween 20 in PBS for 12 h at 4° C. and then rinsed with 0.1% Tween 20 in PBS (PBS-T). […] Biophys. Res. Commun. […] NGF-β was radioiodinated with Iodogen, to a specific activity of 2-5 μCi/μg, using the method recommended by the manufacturer. […] After washing the membranes with PBS-T, bound radioligands were detected by Phosphorlmager analysis.

The next assay concerns FBHE cells. As to the kind of experiment: Endothelial cell proliferation assay, TGF-β alone. The assay is classed as cell-based, bovine. As to conditions: TGF-β 10 pM, 1 h pulse. The method, then: Fetal bovine heart endothelial (FBHE) cells were cultured in DMEM supplemented with 10% FBS, 20 ng/ml acidic fibroblast growth factor, and 80 ng/ml basic fibroblast growth factor and passaged at subconfluence with trypsin-EDTA. To perform proliferation assays, the cells were plated at a density of 2×10^4 /well (24 well plates) in DMEM supplemented with 0.2% FBS. […] The fusion proteins were preincubated with the TGF-β for 15 min prior to addition to the cultures. At the completion of an incubation, the cultures were washed 3 times with serum-free DMEM and then allowed to incubate in DMEM with 0.2% FBS for 30 h. [^3 H]Thymidine was added for an additional 18 h; the cells were then harvested and [^3 H]thymidine incorporation was quantitated.

The target in assay [4] is T3, TGF-β2 (Homo sapiens, UniProt P61812).
T3 construct: purchased Genzyme (Cambridge, Mass.)
T3 sequence (P61812 303-414 limits assumed): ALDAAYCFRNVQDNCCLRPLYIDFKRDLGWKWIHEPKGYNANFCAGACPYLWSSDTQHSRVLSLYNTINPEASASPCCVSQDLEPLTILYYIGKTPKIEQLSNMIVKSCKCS
The experiment in a line: Ligand blot analysis of 125I-TGF-β2 binding to PVDF-immobilized proteins. As to conditions: SDS-PAGE, PVDF membrane, 125I-TGF-β2 20 pM, 2 h at 25° C. The method, then: as §1

The target in assay [5] is T1, TGF-β1. As to the kind of experiment: Ligand blot analysis of 125I-TGF-β1 binding to PVDF-immobilized proteins. As to conditions: SDS-PAGE, PVDF membrane, 125I-TGF-β1, 2 h at 25° C. The method, then:
as §1

The target in the next assay is T4, NGF-β (Mus musculus, UniProt P01139).
T4 construct: from tissue; host or cells: male mouse submaxillary glands
The experiment in a line: Ligand blot analysis of 125I-NGF-β binding to PVDF-immobilized proteins. The following applies: SDS-PAGE, PVDF membrane, 125I-NGF-β 50 pM, 2 h at 25° C. The protocol:
as §1

Assay [6] concerns the target T3, TGF-β2. The following applies: read-out: KD for the binding of TGF-β2; cited from earlier work.
Assay [7] has as its target T3, TGF-β2. The following applies: previously reported in references 31 and 33; mean ± S.E., n=4; read-out: IC50, 125I-TGF-β2 binding to immobilized α2M-MA; cited from earlier work.

One may read the IC50 as the concentration at which inhibition is half-maximal. The Kd is the constant that tells how readily two partners part at equilibrium.

Like-named read-outs stand apart in the source and are kept apart here.

T1 sequence (P01137 279-390 limits assumed, species assumed): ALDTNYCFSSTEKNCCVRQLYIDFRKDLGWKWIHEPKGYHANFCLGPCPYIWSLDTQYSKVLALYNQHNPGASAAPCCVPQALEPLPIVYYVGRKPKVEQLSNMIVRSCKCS
T4 sequence (P01139 122-239 limits assumed): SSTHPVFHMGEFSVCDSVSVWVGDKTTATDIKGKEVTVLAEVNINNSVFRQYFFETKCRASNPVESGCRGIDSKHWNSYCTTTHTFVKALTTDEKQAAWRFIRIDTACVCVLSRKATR
T2 sequence (P01023 with tags, fused parts or gaps limits assumed): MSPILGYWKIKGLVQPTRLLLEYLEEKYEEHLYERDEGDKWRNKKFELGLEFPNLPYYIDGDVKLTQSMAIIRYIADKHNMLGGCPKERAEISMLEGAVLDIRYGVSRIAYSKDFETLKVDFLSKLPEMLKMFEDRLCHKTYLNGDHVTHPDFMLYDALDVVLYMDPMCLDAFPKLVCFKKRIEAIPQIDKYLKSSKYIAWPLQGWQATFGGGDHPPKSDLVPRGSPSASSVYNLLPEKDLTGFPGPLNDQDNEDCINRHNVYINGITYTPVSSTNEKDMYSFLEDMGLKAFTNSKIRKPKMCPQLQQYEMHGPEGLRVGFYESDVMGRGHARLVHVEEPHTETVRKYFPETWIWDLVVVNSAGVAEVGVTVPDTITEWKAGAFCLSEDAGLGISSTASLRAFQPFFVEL
T2 sequence (P01137 279-390 limits assumed): as the sequence (P01137 279-390 limits assumed, species assumed) above

In the case of “Thrombospondin: solution-phase inhibitor of TGF-β binding to immobilized α2M-MA [reference compound]”, in the assay with TGF-β1 [1], the IC50 is 160 ± 18 nM.
For “α2 M monomer: prepared by exposing native α2M to 2 mM DTT under non-denaturing conditions”, the IC50 with TGF-β1 [2] was found to be 360 ± 48 nM.
For the substance “TGF-β1: transforming growth factor-β1 from R&D Systems”, the “Inhibition of 125I-TGF-β1 binding to immobilized FP3” value in assay [3] was 72±8%. The “Decrease of [3H]thymidine incorporation” value in the assay on FBHE cells amounted to 69%.
For the substance “α2 M: Human α2-macroglobulin, 718-kDa homotetrameric glycoprotein purified from plasma”, in the assay with TGF-β2 [4], the “125I-TGF-β2 binding, ligand blot” value is “bound”. For the same substance, the “125I-TGF-β1 binding, ligand blot” value with TGF-β1 [5] is “bound”. In the assay with NGF-β, the “125I-NGF-β binding, ligand blot” value is recorded as “bound”. The Kd with TGF-β2 [6] is 10 nM. The IC50 in the assay with TGF-β1 [1] was 520 ± 39 nM; with TGF-β2 [7], 19 ± 3 nM.
